Consider two molecules from patent CN114989297A (BEIJING KEY BIOTECHNOLOGY CO LTD, dated 2022).

The target in the assay is T1, 单核细胞增生李斯特氏菌鞭毛蛋白免疫原 (Listeria monocytogenes, UniProt Q02551 1-287).
T1 construct: Native flagellin preparation concentrated by ultrafiltration, not a recombinant protein; purity beyond the 33 kD band is not described; also called 免疫原蛋白; 抗原
T1 sequence (looked up): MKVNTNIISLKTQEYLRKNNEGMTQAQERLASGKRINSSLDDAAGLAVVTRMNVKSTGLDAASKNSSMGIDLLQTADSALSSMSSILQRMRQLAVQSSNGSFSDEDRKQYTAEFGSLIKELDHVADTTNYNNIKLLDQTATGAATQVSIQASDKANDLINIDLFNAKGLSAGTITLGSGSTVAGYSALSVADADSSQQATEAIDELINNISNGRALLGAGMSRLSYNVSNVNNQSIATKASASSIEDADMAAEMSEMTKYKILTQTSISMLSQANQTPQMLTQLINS
The experiment in a line: IAsys Plus optical biosensor, immunogen immobilised on CMD cuvette, antibody at 5 concentrations, FASTfit.

B1: LM6G3单克隆抗体 (antibody, V domains shown)
VH: VKPGGSLKLSCAASITAQPSPRMSWVRQTPDKRLEWVAICFEKKIGLYYPDSVKGRFTISRDQDKQTLYLQMSSLKSEDTAMYYCEHEWWDEQVSPWGQGTTVTVS
VL: DLVMTQTAPSVPVTPGESVSISCRSTFKPWPKYEPLHLYWFLQRPGQSPQLLIYMWFNLASGVPDRFSGSGSGTAFTLRISRVEAEDVGVYYCMNACCYYRQFGSGTKLEIK
Consider B1, for which the equilibrium dissociation constant (Kd) (usually the free concentration of one partner at which half of the binding sites on the other are occupied at equilibrium, for simple one-to-one binding) turned out to be 8.73 nM.

B2: LM3F6单克隆抗体 (antibody, V domains shown)
VH: VKPGGSLKLSCAASSWAQYINTMSWVRQTPDKRLEWVAIISYYSRDKYYPDSVKGRFTISRDQDKQTLYLQMSSLKSEDTAMYYCPYTRPPVIWMTWGQGTTVTVS
VL: DLVMTQTAPSVPVTPGESVSISCRSTQGYCRKLVGDYLYWFLQRPGQSPQLLIYWHPNLASGVPDRFSGSGSGTAFTLRISRVEAEDVGVYYCLCCRCKSGGFGSGTKLEIK
As to B2, the equilibrium dissociation constant (Kd) is 2.46 nM.
